The text below walks through data of patent US12018058B2, “Compositions and methods for diagnosing and/or treating kidney injury” (Boston Medical Center Corporation, priority 2018, dated 2024).

This assay deals with primary murine proximal tubule epithelial cells (PTECs). As to the kind of experiment: Functional bioassays of flag-tagged NPM phosphomimic proteins expressed in PTECs. The assay is classed as cell-based. Particulars: for Postischemia cell survival: 60 minutes ATP depletion, FIG. 5E; for NPM localization in resting cells: absence of ischemic stress, FIG. 5A; for NPM-Bax complex formation: after ATP depletion, FIG. 5C; for NPM and active Bax accumulation in isolated mitochondria: after ischemic stress, FIG. 5D; for NPM oligomeric state: resting cells, native gel, FIG. 5B. An excerpt:
The biologic behavior of nucleophosmin (NPM) phosphomimic proteins assessed using functional bioassays performed in primary murine proximal tubule epithelial cells (PTECs) that express flag-tagged wild type (WT), a normal (Nor-M or NrNPM) NPM mimic protein, or a stress (Stre-M, StNPM, or Stress-M) NPM mimic protein that replicates differential NPM phosphorylation. […] EV, empty sgOpti vector; RDU, relative density unit. *P, 0.05 for Nor-M and Stress-M NPM phosphomimics versus control (CTL).
Human NPM cDNA (catalog no. 34553; Addgene, Cambridge, MA) and pCDH lentivector systems (System Biosciences, Mountain View, CA) were used to generate NPM wild-type, “NPM stress mimic” (T86E-S88E-T95E-T234A-S242A), and “NPM normal mimic” (T86A-S88A-T95A-T234E-S242E) lentiviral expression plasmids by PCR-based mutagenesis with a flag tag fused to the 59 open reading frame. PCR products were cloned into pCDH vector BamHI/EcoRI sites. All constructs were confirmed by DNA sequencing before cotransfection with pPACKG1 lentivector packaging plasmids into HEK293NT cells to generate lentipseudoviral particles. The resultant pseudoviruses were harvested and purified, and titers were determined according to the manufacturer's instructions. Cells were exposed to virus (MOT 5-8) diluted in Opti-MEM (Invitrogen). After 6 hours incubation with virus-infected medium, a complete culture medium was substituted for an additional 16-hour incubation period.
To determine the biologic role of differential NPM phosphorylation at these five serine/threonine sites and the contribution to cytotoxicity, two flag-tagged NPM phosphomutant proteins as well as wild-type NPM were generated and introduced into human proximal tubule cells. These two mimic proteins replicated the phosphorylation state of NPM in either its normal or stressed configuration at the five differentially phosphorylated sites identified by mass spectrometry (FIG. 4). Specific bioassays were then used to assess the effect of these five post-translational phosphorylation changes on toxic NPM behaviors, including translocation, deoligomerization, NPM-Bax complex formation, mitochondrial NPM and Bax accumulation, and cell death.
Based on this phospho-proteomic data, 32 site-specific, amino terminal, flag-tagged NPM proteins with differential phosphorylation were generated (see FIG. 4B) and placed in a lentiviral vector ([…] phospho-mimic proteins; ref Wang, Havasi et al. 2011). Both the plasmid sequence and protein expression were confirmed. Serine or threonine residues in each of the NPM phospho-mimics was rendered either nonphosphorylatable (alanine substitution) or phospho-mimetic (glutamic acid substitution) at each of the 5 NPM residues identified by mass spec to be altered by ischemia. These NPM phospho-mimics represent all of the possible combinations of constitutively non-phosphorylated and phosphorylated variants at all of the 5 phosphosites ([…], see table, FIG. 4B). The flag epitope facilitates immunohistochemistry for detecting NPM distribution, NPM oligomerization and immunoprecipitation (IP) for detecting interaction between Bax and each NPM phospho-mimic. To establish a causal link between phosphorylation and NPM-function, a flag-tagged NPM mimic that replicated the NPM phospho-state in healthy PTEC and kidney tissue (#10, “normal NPM mimic”) or replicated NPM phosphorylation in post-ischemic cells and tissue (#11; “stress-NPM mimic”; FIG. 4B) was introduced into primary murine PTEC for further study. Dramatic differences in the biologic behavior of these 2 NPM phospho-mimics were detected. […] Using this phospho-data generate 2 new therapeutic peptides that target either T86, S88 and T95 or T232 and S240 were generated (FIG. 4A) and tested (FIG. 7). Screening the remaining NPM mimic proteins can identify the specific function of all 5 phospho-sites.

Setting [1] is: listed as normal NPM-phospho-mimic.

Entries after “also recorded” stand apart in the source; their conditions may differ.

B1: normal mimic NPM: flag-tagged NPM phosphomutant T86A-S88A-T95A-T234E-S242E expressed by lentivirus (protein)
chain: MEDSMDMDMSPLRPQNYLFGCELKADKDYHFKVDNDENEHQLSLRTVSLGAGAKDELHIVEAEAMNYEGSPIKVTLATLKMSVQPAVALGGFEIAPPVVLRLKCGSGPVHISGQHLVAVEEDAESEDEEEEDVKLLSISGKRSAPGGGSKVPQKKVKLAADEDDDDDDEEDDDEDDDDDDFDDEEAEEKAPVKKSIRDTPAKNAQKSNQNGKDSKPSSTPRSKGQESFKKQEKEPKTPKGPESVEDIKAKMQASIEKGGSLPKVEAKFINYVKNCFRMTDQEAIQDLWQWRKSL
modifications: left off: small tags and cut ends
notes: flag-tagged NPM phosphomutant T86A-S88A-T95A-T234E-S242E expressed by lentivirus
Regarding B1, the Postischemia cell survival entry is reported as “significantly reduced cell death; also recorded: improved PTEC survival”; the NPM-Bax complex formation result is reported as “decreased NPM-Bax complex formation”; the “NPM and active Bax accumulation in isolated mitochondria” value (“NPM and active Bax accumulation” for short) was “decreased”; the NPM oligomeric state result is “formed large oligomers”. Where the note is “listed as normal NPM phosphomimic”, the “NPM localization in resting cells” value is recorded as “accumulated in a nucleolar pattern”. Further, under setting [1], the “NPM localization in resting cells” value is “exclusively localized to nucleoli”; the NPM-Bax complex formation entry is listed as “minimally complexed with Bax”; the “NPM and active Bax accumulation” value is reported as “did not accumulate in isolated mitochondria”; the NPM oligomeric state result is reported as “remained in the oligomerized state”.

B2: stress mimic NPM: flag-tagged NPM phosphomutant T86E-S88E-T95E-T234A-S242A expressed by lentivirus (protein)
chain: MEDSMDMDMSPLRPQNYLFGCELKADKDYHFKVDNDENEHQLSLRTVSLGAGAKDELHIVEAEAMNYEGSPIKVTLATLKMSVQPEVELGGFEIEPPVVLRLKCGSGPVHISGQHLVAVEEDAESEDEEEEDVKLLSISGKRSAPGGGSKVPQKKVKLAADEDDDDDDEEDDDEDDDDDDFDDEEAEEKAPVKKSIRDTPAKNAQKSNQNGKDSKPSSTPRSKGQESFKKQEKAPKTPKGPASVEDIKAKMQASIEKGGSLPKVEAKFINYVKNCFRMTDQEAIQDLWQWRKSL
modifications: left off: small tags and cut ends
notes: flag-tagged NPM phosphomutant T86E-S88E-T95E-T234A-S242A expressed by lentivirus
Turning to B2, the Postischemia cell survival entry is listed as “significantly lower”; the NPM-Bax complex formation result is “substantially greater”; the “NPM and active Bax accumulation” value is “exceeded that observed with wild-type or normal mimic NPM”; the NPM oligomeric state result is reported as “accumulated as small monomers”. Where the note is “listed as stress NPM mimic”, the Postischemia cell survival entry is given as “significantly decreased PTEC survival”; the “NPM localization in resting cells” value is on record as “exclusively localized to the cytosol”; the NPM-Bax complex formation result was “markedly increased NPM-Bax complex formation”; the “NPM and active Bax accumulation” value is given as “dramatically increased NPM accumulation in isolated mitochondria”. In addition, the NPM oligomeric state entry (listed as stress NPM mimic) is recorded as “caused marked NPM de-oligomerization”. Besides, the “NPM localization in resting cells” value (listed as NPM stress mimic protein) is “localized to the cytosol”.
